From PMC4161437, “Structural Correlates of Rotavirus Cell Entry” (PLoS Pathogens, 2014) come the findings set out here.

Test [1] has as its target T1, rhesus rotavirus (RRV) VP4 hydrophobic-loop mutant V391D, recombinant (rhesus rotavirus (RRV; G3 serotype), UniProt P12473 1-776, V391D).
T1 construct: VP4 of rhesus rotavirus (RRV; G3 serotype) with V391D in a hydrophobic loop of VP5*; also called V391D VP4; VP4 fusion-loop mutant; source: baculovirus-infected insect cells, purified (AmSO4 precipitation, Phenyl HP, HiTrap Q, S200)
In words: co-sedimentation; recoating: VP4 added to purified DLPs in at least 5-fold excess at pH 5.2 (sodium acetate), 1.5 h at room temperature; then VP7 in at least 3-fold molar excess with calcium, 30 min; recoated particles separated from excess components by cesium chloride gradient centrifugation; SDS-PAGE and fluorescence imaging of the purified particles. The following applies: both partners purified.

Test [2] deals with T2, rhesus rotavirus (RRV) outer-layer protein VP4, recombinant, wild type (rhesus rotavirus (RRV; G3 serotype), UniProt P12473 1-776, amine-specific Atto dye in some preparations (dye combinations varied)).
T2 construct: VP4, outer capsid spike protein of rhesus rotavirus (RRV; G3 serotype); recombinant, not cleaved by trypsin when added to DLPs; Recoated particles were treated with trypsin (cleavage to VP8* and VP5*) only after recoating; also called WT VP4; VP4 wt; source: baculovirus-infected insect cells, purified (AmSO4 precipitation, Phenyl HP, HiTrap Q, S200)
The description is as above. The following applies: both partners purified.

B1: rhesus rotavirus (RRV) outer-layer glycoprotein VP7, recombinant, wild type (natural protein)
chain: QNYGINLPITGSMDTAYANSTQEETFLTSTLCLYYPTEAATEINDNSWKDTLSQLFLTKGWPTGSVYFKEYTDIASFSVDPQLYCDYNVVLMKYDATLQLDMSELADLILNEWLCNPMDITLYYYQQTDEANKWISMGSSCTIKVCPLNTQTLGIGCLTTDTATFEEVATAEKLVITDVVDGVNHKLDVTTATCTIRNCKKLGPRENVAVIQVGGSDVLDITADPTTAPQTERMMRINWKKWWQVFYTVVDYVNQIIQAMSKRSRSLNSAAFYYRI
modifications: amine-specific Atto dye in some preparations (dye combinations varied)
notes: VP7, outer capsid glycoprotein of rhesus rotavirus (RRV; G3 serotype); Ca2+-stabilized trimer; also called WT VP7; VP7 wt
In the case of B1, the binding result in test [1] and in test [2] was “binds” in each case.
